The nature of the data set: soluble fraction after stress (log2 fold change); higher = more stays soluble; pooled small domains, quantitative proteomics. The note with it: stress: 50 degC. The method in brief: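 Pooled custom libraries of small protein domains were measured in a high-throughput format, with quantitative proteomics as the read-out. Each library was stressed at 50°C. Aggregation propensity is given as the base-two logarithm of the fold change in how much of each protein stays soluble after the stress. Higher values mean a larger share of the protein remains in solution.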

Regarding “HMTGGIWVQIQGAVERPGVYSLPRDSRLKDLLEAAGGFGRDADTEKVNQAARLEDGAMYRVPRQGEG”, the “soluble fraction (log2)” value came to 0.352.

On to “HMASRSQTEIMHLLSSGLPKHELVTALQSLLGISKPTAYKYLSQDVSIAYDHMVKILEYPPFQRVLYQ”, for which the “soluble fraction (log2)” value is -1.34.

Consider “HMAQSEDLMVMAQRILGGPEAQSFFQAEATRQGLAGFLPEPIPDFLQRLERKLSGSVGSATAHAMVAQTMG”, for which the “soluble fraction (log2)” value is -0.179.

In the case of “HMGKNIQAIRYKNNMTQDQVVAKLNLMGISITKSTYAKLETNRMNIKASELVALAKLFHTDINAFFSG”, the “soluble fraction (log2)” value is -3.24.

Consider “HMSNTPHSREVLLEMDAVRRLLAVGEEKGEVDRADLQGAFEEAELGRGDLDGVLSILREYDVPLAR”, for which the “soluble fraction (log2)” value was 0.0709.

Consider “HMNRIEMTEPIIIKDLSRETGIPWVAIQKRLAQDGIMANINTTIEAEKAQLIAVDYGIELAVV”, for which the “soluble fraction (log2)” value was 0.0679.

In the case of “HMDRDMGSMTDFENVRDAYLTGKVWNVGDLIEANGITGIIIRKGTNYVSYNDGDGKVHKAWLHDITL”, the “soluble fraction (log2)” value is -0.886.

In the case of “HMAEQLGNSRTANMVMLGAMIERTGVISIDSAMEALKATFGPKKEHLLPINRQAMEAGAAAARAV”, the “soluble fraction (log2)” value is 0.303.

On to “HMPVQSNRDALLDIGQTLQVQAWDAQGSARVSYRGSDWTAEFRGPGAAAPGLHRIIAVQGNRLIVEPA”, for which the “soluble fraction (log2)” value came out at 0.174.

For “HMLMLTPGQIAQTLDVSTATVRRWSARYARHLSPNTPGKKRSYTVDDLAVLTRVRDLSATGTPLAQIDQAL”, the “soluble fraction (log2)” value is -2.02.

Take “HMGKNYYEILGITKSASEEQVRKAFRGLAMEWHPDRNRSADSEERFKEINEAYQVLIDPKKRQMYDQYGR”: the “soluble fraction (log2)” value turned out to be 0.388.

As to “HMDRSKREKEQQELMLKVQQIFDDNQQRFGAEKIRTVLAQNGVRVSVKRVSAIMQELNLRSIR”, the “soluble fraction (log2)” value was -0.871.

Consider “HMTQQYVEWKVYNVTTIKNKYGFRVKLIFQDGSDATQQKGGFTSKKAAEQARTEVIGQLYSNTYVVY”, for which the “soluble fraction (log2)” value was -4.49.

As for “HMPPTSADGIEKYLASGMIRGVGPVYAKKLVSAFGDKVFDIIEAAPHQLQEVEGIGRVRAASILAAWAEQ”, the “soluble fraction (log2)” value is 0.134.

On to “HMDFTISDADFHRLVQFIQQNYGVALSKKRQLISSRLSHSLRELGYKDFRTFLEHLFSTRDPADLELVLNK”, for which the “soluble fraction (log2)” value is -0.989.

In the case of “HMSNGFFELKTSQQDELIDLIDSHTNFVRTKIEGELITAFLKLPMDAEEFNKLLFTNGIILSHLVKRK”, the “soluble fraction (log2)” value is -0.461.

Turning to “HMAPEVTVHDGSIVVRGHVGGVTVYDESGRQIASVQSRGAVAIPVPAGHTYLYIVKPEGKPAIKVRAAH”, the “soluble fraction (log2)” value turned out to be 0.0927.

For the sequence “HMNTKLKPLYLLDIFREMTDERHRMTVPELLEELQRRGITAERKGIYRDIDALIQYGADIKHTGTGYYLAR”, the “soluble fraction (log2)” value is -0.561.

With “HMAENTIPSVIGKTLSDATFLLESYGYERGGVSEEYSEMPKGVVIRQSPQAGSSADPGTKVNLVVSLGEEI”, the “soluble fraction (log2)” value was 0.174.

In the case of “HMAVNVNGIHLSSQQHEALVSIWRTGRMPEPHAGQKPWLWIQALRRRGLVSGNALRLTDKGRHIVQLLQ”, the “soluble fraction (log2)” value is 0.142.

For “HMAPRQDIAYYTVKPGDTVLAIAEKFGLQPETLMWSNSIIEQNPDRLSIGDELRILPVDGVLHVVK”, the “soluble fraction (log2)” value is 0.0612.

On to “HMKALHEEIAEKIQEQILRSNLAPGDKLDTELELAARYGVSRSTIRQALIQLESAGLIDRLHGRGTFVAD”, for which the “soluble fraction (log2)” value was found to be 0.425.

As to “HMSGSIIQQAENLERQFGDTREAILGTLSDPKMSEEILETLMERYNKQHGTNWDKNTWAEEWAKANK”, the “soluble fraction (log2)” value is 0.23.

As for “HMETFGLSQRELQILSQLHKGQPLKEFAASLFITESTLKTHLSAIYRKMSVKNRVQAIEKAKQSGL”, the “soluble fraction (log2)” value is -1.24.

On to “HMVMTTVPEVLGMDISKAASLLTGKNLDYDYDLVESDKPKDQVIEQDVVKGTEVPEGTVIHLKVSKGPA”, for which the “soluble fraction (log2)” value was 0.228.

Take “HMENSLLSESLAKIYIKTHRYERAYEILSRLSLAVPEKNAYFADQLRFLRKVMLAESFRKQHS”: the “soluble fraction (log2)” value is -0.00623.

In the case of “HMLVPWKSANLFKLVEPNFRLAERKIPMLPSADREKLQEIMSDMKDAIVDNDKMALMKLDEELTDFLFDFV”, the “soluble fraction (log2)” value is -1.22.

With “HMNENYNLSKREKEVLDLLVNGKSYKVIATELAISYETVHSHIKKIYHKLHVSSIGEAVSKTIKQKIL”, the “soluble fraction (log2)” value is -1.58.

Take “HMKSISMANGNVQLRINGVLASSLEVAALSPEDIKRVEYHDNPGLRYGEGIDIVLDYITIKRT”: the “soluble fraction (log2)” value is -0.384.

As for “HMGSREVPFSDFISKVESGSVLEVVLRGRQVEGLTDANERFQTQIPNYPALFEILERNQVRTRVEPT”, the “soluble fraction (log2)” value was 0.0852.

With “HMSTLSIHIPDKFAGQRLDQALAELYSQFSRSRLQQWLNDGELLVDGKSVKANKKVLGGEFIQILK”, the “soluble fraction (log2)” value was -0.861.

With “HMLTLSGPEHAVVRALWPEPELDFDVLIRKTGLPSAQLMTLAMQLEMKKIIRRLPGRRLALMDDIRR”, the “soluble fraction (log2)” value is -1.85.

As for “HMGQVSEAGELEVAADRVIAANPEAVTKYKSGNENILQFLVGQMMKETKGAANPQVAAEILRKKIV”, the “soluble fraction (log2)” value is 0.254.

On to “HMERPLFVIEDYRRFAGNEVEISLKKGGKKIRGVIAGTPSDAEVTVRTQGGETTVPLGDVKRAHLVYV”, for which the “soluble fraction (log2)” value is 0.123.
